Data published in patent US20250186614A1, “COMPACT DRUG RESPONSIVE DOMAINS FOR REGULATION OF FUNCTION/ABUNDANCE AND DELIVERY OF POLYPEPTIDE PAYLOADS” (OBSIDIAN THERAPEUTICS, INC., priority 2022, published 2025).
Where a chain is given by its changes, count along the chain named. Names may count otherwise. Read-outs that look alike come from different tables or passages of the source.

B1: FKBP-195: combinatorial FKBP13 mutant construct of Table 10, carries K135Y (protein)
chain: HCPIKSRKGDVLHMHYTGKLEDGTEFDSSLPRNQPFVFSLGTGERIKGWDQGLLGMCEGEKRKLVIPSELGYGERGWPPKIPGGATLVFEVELLYIER
modifications: Description of sequence: Construct Name: FKBP-195; Mutation(s): Q72R Q84E A117W V85R DRD K135Y
B2: FKBP-201: FKBP13 DRD-AcGFP construct of Table 10 (protein)
chain: B1 chain with H13L, Y95K
modifications: Description of sequence: Construct Name: FKBP-201; Mutation(s): Q72R Q84E A117W V85R DRD H53L
B3: FKBP-251: combinatorial FKBP13 mutant construct of Table 10 (protein)
chain: B1 chain with E90F, Y95K
modifications: Description of sequence: Construct Name: FKBP-251; Mutation(s): Q72R Q84E A117W V85R DRD E130F
B4: FKBP-202 (protein)
chain: B1 chain with G9S, M14A, Y95K
modifications: Description of sequence: Construct Name: FKBP-202; Mutation(s): Q72R Q84E A117W V85R DRD M54A G49S
B5: FKBP-228: combinatorial FKBP13 mutant construct of Table 10 (protein)
chain: B1 chain with Y95K, E97R
modifications: Description of sequence: Construct Name: FKBP-228; Mutation(s): Q72R Q84E A117W V85R DRD E137R

Tests used:
Jurkat cells = test: Tacrolimus dose response of FKBP13-AcGFP-mCherry constructs stably transduced into Jurkat cells, GFP MFI by flow cytometry; type: cell-based; design: Basal: unit not given here; conditions: for basal AcGFP expression: absence of tacrolimus
Procedure, shortened: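 GFP geometric MFI was read by flow cytometry in mCherry+ cells and curve-fitted against tacrolimus dose. Cells were Jurkat E6-1, lentivirus-transduced with FKBP13-AcGFP-mCherry fusion constructs until 10-25% mCherry-positive on day 5 post-transduction.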

[1] = Example 4: dose response of FKBP constructs 160-255, Ec50, Ec90 and fold change (raw and normalized to mCherry); type: cell-based; conditions: for FC (fold change): fold change during initial analysis
Method: Additional experiments were performed for constructs FKBP-160-292.

[2] = FKBP constructs 160-255, not normalized, read-out: EC90
[3] = normalized to mCherry, read-out: EC90 (Norm)

Row | Molecule | basal AcGFP expression (Jurkat cells) | FC (Jurkat cells; tacrolimus, FIG. 35) | Peak (Jurkat cells; tacrolimus, FIG. 35) | FC (Jurkat cells; tacrolimus, FIG. 36) | Peak (Jurkat cells; tacrolimus, FIG. 36) | FC (Jurkat cells; tacrolimus, FIG. 37) | Peak (Jurkat cells; tacrolimus, FIG. 37) | FC (Jurkat cells; tacrolimus, FIG. 38) | Peak (Jurkat cells; tacrolimus, FIG. 38) | EC90 [1, 2] [nM] | FC (fold change) [1] | EC90 [1, 3] [nM] | further results
1 | B1 | lowest basal expression | 89.61 | 4362 | 89.61 | 4362 | 89.61 | 4362 | 89.61 | 4362 | 165 | 50.1 | 140 | Basal (Jurkat cells; FIG. 39): 68.4; FC (Jurkat cells; FIG. 39): 90; Peak (Jurkat cells; FIG. 39): 5808; Basal (Jurkat cells; FIG. 50): 75.5; FC (Jurkat cells; FIG. 50): 61.07; At 10 uM (Jurkat cells; FIG. 50): 4611; FC (Jurkat cells; tacrolimus, FIGS. 29 and 30): 66; FC (Jurkat cells; tacrolimus, FIGS. 31 and 32): 66; FC (Jurkat cells; tacrolimus, FIGS. 33 and 34): 66
2 | B2 |  |  |  |  |  |  |  |  |  | 144 | 33.1 | 153 | 
3 | B3 | lowest basal expression | 92.03 | 5078 | 92.03 | 5078 | 92.03 | 5078 | 92.03 | 5078 | 104 | 97.5 | 113 | Basal (Jurkat cells; FIG. 40): 76; FC (Jurkat cells; FIG. 40): 100; Peak (Jurkat cells; FIG. 40): 7406; Basal (Jurkat cells; FIG. 46, BR1 (Biorep 1)): 64; FC (Jurkat cells; FIG. 46, BR1 (Biorep 1)): 97.61; At 10 uM (Jurkat cells; FIG. 46, BR1 (Biorep 1)): 6247; Basal (Jurkat cells; FIG. 46, BR2 (Biorep 2)): 46.1; FC (Jurkat cells; FIG. 46, BR2 (Biorep 2)): 76.79; At 10 uM (Jurkat cells; FIG. 46, BR2 (Biorep 2)): 3540
4 | B4 |  |  |  |  |  |  |  |  |  | 1010 | 46.2 | 1060 | 
5 | B5 | lowest basal expression |  |  |  |  |  |  |  |  | 116 | 55.1 | 124 | Basal (Jurkat cells; FIG. 41): 112; FC (Jurkat cells; FIG. 41): 85; Peak (Jurkat cells; FIG. 41): 8896; Basal (Jurkat cells; FIG. 42, BR1 (Biorep 1)): 103; FC (Jurkat cells; FIG. 42, BR1 (Biorep 1)): 55.15; At 10 uM (Jurkat cells; FIG. 42, BR1 (Biorep 1)): 5680; Basal (Jurkat cells; FIG. 42, BR2 (Biorep 2)): 99.6; FC (Jurkat cells; FIG. 42, BR2 (Biorep 2)): 60.71; At 10 uM (Jurkat cells; FIG. 42, BR2 (Biorep 2)): 6047
